The values that follow are results of earlier work, collected in publication PMC12376249.

The data set concerns the target Histone H1 (Homo sapiens) (UniProt P07305). In words: single-molecule FRET.
UniProt P07305, sequence (P07305 2-194): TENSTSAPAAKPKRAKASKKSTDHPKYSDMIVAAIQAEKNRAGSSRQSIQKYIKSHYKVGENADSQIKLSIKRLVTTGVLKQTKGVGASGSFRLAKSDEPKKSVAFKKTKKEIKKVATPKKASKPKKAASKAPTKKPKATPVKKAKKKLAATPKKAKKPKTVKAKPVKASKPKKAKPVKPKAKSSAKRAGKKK

Broadly, the Kd is the free concentration of one partner at which half of the binding sites on the other are occupied at equilibrium, for simple one-to-one binding. On to Prothymosin alpha (from UniProt P06454), for which the Kd is 0.05 nM.
